Key:
[1] = target: GLP-2R (GLP-2 receptor) on GLP-2R/Luc-CHO cells; experiment: cell-based or functional assay
GHR on Ba/f3-GHR cells = experiment: cell-based or functional assay

in vitro cytological activity, EC50 (luciferase reporter, GLP-2R/Luc-CHO cells) [1] | In vitro cytological activity, EC50 (Ba/f3-GHR cells, MTT) (GHR on Ba/f3-GHR cells) | Substance
5.2 nM | – | GLP-2 (Hangzhou Chinese Peptide Biochemical Co., Ltd., Cat. No: GLUC-002A)
– | 0.54 nM | hGH (human auxin) (from UniProt P01241 27-217) (ligand)

Reference: patent US20220119448A1
